# Where “and” joins values, the source holds several entries; their conditions need not be identical. Equal entries are not always repeated. No end group written: not given here. *: point of attachment. Biotin = O=C1N[C@H]2[C@H](CS[C@H]2CCCCC(=O)*)N1
# T1: Gαs363–380 (UniProt P63092-2 363-380)
# T1 construct: Gαs, C-terminal 18 residues 363-380; the numbers fit the 380-residue short form; also called peptide comprised of the C-terminal 18 residues of Gαs; Gαs C-terminal peptide
# T1 peptide (looked up): Biotin-NDCRDIIQRMHLRQYELL
# T2: MBP-Gαt327–350 (UniProt P04695 327-350)
# T2 construct: In pET15b; also called 24 C-terminal residues of Gαt fused to MBP; tagged C-terminal fragment of Gα; source: E. coli BL21(DE3), purified (Ni-NTA, SEC); not shown: MBP (E. coli MBP28–394 with D110A/K111A/E200A/N201A/A243H/K247H/K267A, joined by an AAAH linker), N-terminal, kept
# T2 chain (looked up): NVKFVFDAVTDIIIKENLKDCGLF
# T3: GB1-Gαt340–350 (UniProt P04695 340-350)
# T3 construct: transducin-α (Gαt, Gαt1), the 11 C-terminal residues 340-350; Cloned into a modified pQE30 vector containing the GB1 tag; also called 11 C-terminal residues of Gαt fused to the B1 domain of Streptococcal protein G; source: E. coli BL21(DE3); purification not described
# T3 chain (looked up): IKENLKDCGLF
# B1: bovine Ric8A1–492 (domain or fragment, UniProt Q5E9J8 1-492, looked up)
# chain: MEPRAVADALETGEEDVVMEALRAYNRENSQSFTFDDAQQEDRKRLAKLLVSVLEQGLPPSRRVIWLQSIRILSRDRSCLDSFTSRRSLQALACYAGISASQGSVPEPLNMDVVLESLKCLCNLVLSSPVAQALAAEAGLVVRLAERVGLCRQSSFPHDVQFFDLRLLFLLTALRTDVRQQLFQELQGVRLLTRALELTLGMTEGERHPELLPPQETERAMEILKVLFNITFDSIKREVDEEDAALYRHLGTLLRHCVMLAAAGDRTEELHGHAVNLLGNLPVKCLDVLLTLEPHEGSLEFLGVNMDVIRVLLSFMEKRLHQTHRLKESVAPVLSVLTECARMHRPARKFLKAQVLPPLRDVRTRPEVGELLRNKLVRLMTHLDTDVKRVAAEFLFVLCSESVPRFIKYTGYGNAAGLLAARGLMAGGRPEGQYSEDEDTDTDEYKEAKASINPVTGRVEEKPPNPMEGMTEEQKEHEAMKLVNMFDKLSRH
# B2: Gαt333–350 (peptide, UniProt P04695 333-350, looked up)
# peptide: Biotin-DAVTDIIIKENLKDCGLF
# notes: also called 18-mer C-terminal peptide of Gαt; biotinylated Gαt333–350
# Tests used:
# Conditions in all cases: both partners purified
# Gαs363–380 = molecular target: T1, Gαs363–380; assay: BLI; N-terminally biotinylated Gα peptides on streptavidin biosensors, Ric8A proteins in solution; Octet RED96, 26 °C, 20 mM Tris, 150 mM KCl, 5% glycerol, 1 mM TCEP, 0.5 mg/ml BSA, pH 8.0; kinetic fit (1:1 model) and steady-state fit (one site)
# MBP-Gαt327–350 = molecular target: T2, MBP-Gαt327–350; assay: SEC; Ric8A1–492 mixed with GB1-Gαt340–350 or MBP-Gαt327–350; elution profiles
# GB1-Gαt340–350 = molecular target: T3, GB1-Gαt340–350; assay: as above
# Gαt333–350 = molecular target: B2; assay: differential scanning fluorimetry; Ric8A constructs at 0.5 mg/ml with or without 50 µM peptide, Sypro Orange, 20 mM Tris-HCl pH 7.5, 150 mM KCl, 5% glycerol, 1 mM TCEP
# bovine Ric8A1–492 [1] = molecular target: B1; assay: BLI; full-length Avi-tagged Gαt on streptavidin biosensors, Ric8A1–492 proteins in solution; 26 °C, 20 mM Tris, 150 mM KCl, 5% glycerol, 1 mM TCEP, 0.5 mg/ml BSA, pH 8.0; steady-state fit
# bovine Ric8A1–492 [2] = molecular target: B1; assay: BLI; N-terminally biotinylated Gα peptides on streptavidin biosensors, Ric8A proteins in solution; Octet RED96, 26 °C, 20 mM Tris, 150 mM KCl, 5% glycerol, 1 mM TCEP, 0.5 mg/ml BSA, pH 8.0; kinetic fit (1:1 model) and steady-state fit (one site)
binder,measurement,setting,value
B1,fold lower affinity than to Gαt333–350,Gαs363–380,~18 fold
same,stoichiometry N,MBP-Gαt327–350,~1
same,stoichiometry N,GB1-Gαt340–350,~1
same,shift of Tm,Gαt333–350,~9 °C
"Avi-tagged I340Q/N343H mutant of Gαt (natural protein, biotin on the Avi tag (cells grown in media supplemented with biotin)) MGAGASAEEKHSRELEKKLKEDAEKDARTVKLLLLGAGESGKSTIVKQMKIIHQDGYSLEECLEFIAIIYGNTLQSILAIVRAMTTLNIQYGDSARQDDARKLMHMADTIEEGTMPKEMSDIIQRLWKDSGIQACFDRASEYQLNDSAGYYLSDLERLVTPGYVPTEQDVLRSRVKTTGIIETQFSFKDLNFRMFDVGGQRSERKKWIHCFEGVTAIIFCVALSDYDLVLAEDEEMNRMHESMKLFDSICNNKWFTDTSIILFLNKKDLFEEKIKKSPLTICYPEYAGSNTYEEAGNYIKVQFLELNMRRDVKEIYSHMTCATDTQNVKFVFDAVTDIIQKEHLKDCGLF",Kd,bovine Ric8A1–492 [1],2300 nM
B2,Kd,bovine Ric8A1–492 [2],240 nM and 280 nM and 270 nM
same,koff,bovine Ric8A1–492 [2],0.031 s⁻¹
same,kon,bovine Ric8A1–492 [2],130000 M⁻¹ s⁻¹
"full-length Avi-tagged Gαt (natural protein, biotin on the Avi tag (cells grown in media supplemented with biotin)) MGAGASAEEKHSRELEKKLKEDAEKDARTVKLLLLGAGESGKSTIVKQMKIIHQDGYSLEECLEFIAIIYGNTLQSILAIVRAMTTLNIQYGDSARQDDARKLMHMADTIEEGTMPKEMSDIIQRLWKDSGIQACFDRASEYQLNDSAGYYLSDLERLVTPGYVPTEQDVLRSRVKTTGIIETQFSFKDLNFRMFDVGGQRSERKKWIHCFEGVTAIIFCVALSDYDLVLAEDEEMNRMHESMKLFDSICNNKWFTDTSIILFLNKKDLFEEKIKKSPLTICYPEYAGSNTYEEAGNYIKVQFLELNMRRDVKEIYSHMTCATDTQNVKFVFDAVTDIIIKENLKDCGLF",Kd,bovine Ric8A1–492 [1],24 nM
"Biotin-NDCRDIIQRMHLRQCGLF (cysteine pairing not given here, Gαs C-terminal 18-mer without its last four residues; the numbers fit the 380-residue short form; the four C-terminal residues of Gαt; also called chimeric C-terminal peptide of Gαs ending in CGLF) [peptide C1]",binding result,bovine Ric8A1–492 [2],binds
"Biotin-NDCRDIIIRMNLRQCGLF (cysteine pairing not given here, Gαs C-terminal 18-mer without its last four residues, with Q370I and H373N; the numbers fit the 380-residue short form; the four C-terminal residues of Gαt; Peptide C1 with two additional substitutions) [peptide C2]",binding result,bovine Ric8A1–492 [2],binds

# Reference: paper PMC6625990, “Structural underpinnings of Ric8A function as a G-protein α-subunit chaperone and guanine-nucleotide exchange factor” (Nature Communications, 2019)
